Here are results for three substances from publication PMC9589210.

For assay [1], the target named is microtubules polymerised from bovine brain tubulin (bovine (endogenous in brain)) (UniProt Q6B856). The assay is described as follows: TIRF microscopy (single-molecule imaging); 750 nM unlabeled Tau spiked with 300 pM Alexa-647-labeled Tau on dynamic microtubules (5 μM tubulin, 10% Alexa-488) grown from surface-held GMPCPP seeds, TIRF assay buffer, 37 °C, 10 frames/s.

Assay [2] shares this target.
The target is the same in assay [3]. Kind of assay: TIRF microscopy (fluorescence intensity of labeled Tau on microtubules); occupancy: 750 nM Alexa-647 Tau on dynamic microtubules grown from surface-held GMPCPP seeds with 5 μM tubulin, 1 mM GTP, TIRF assay buffer (BRB80, 10 mM DTT, oxygen scavenger), 37 °C; normalized average fluorescence intensity, seeds excluded.
Assay [4] addresses WT-Tau, 3RS isoform, Alexa 488-labeled (construct for FCS) (UniProt P10636). Kind of assay: fluorescence correlation spectroscopy (FCS); ~20 nM Alexa 488-labeled Tau, tubulin titrated 0.5-10 μM, nonpolymerizing conditions, BRB80 (80 mM Pipes, 1 mM EGTA, 1 mM MgCl2, pH 6.9), 20 °C, 5 min incubation; diffusion times normalised to that without tubulin and fit to a binding model.
In assay [5] the target is R5L-Tau, 3RS isoform, Alexa 488-labeled (construct for FCS) (UniProt P10636). The assay is described as above.

In assay [1], “R5L-Tau, 3RS isoform (construct for TIRF microscopy), Alexa 647-labeled (from UniProt P10636-2 1-352) (natural protein)” had a dwell time of diffusive events of 0.5 s, a dwell time of static events of 0.7 s and a percent static binding of 18%. Further, in assay [2], the microtubule growth rate at the minus end, dynamic microtubules with 750 nM unlabeled Tau (TIRF) came to 0.41 μm/min; the microtubule growth rate at the plus end, dynamic microtubules with 750 nM unlabeled Tau (TIRF) amounted to 1.04 μm/min; the microtubule shrinkage rate at the minus end, dynamic microtubules with 750 nM unlabeled Tau (TIRF) was 10.4 μm/min; the microtubule shrinkage rate at the plus end, dynamic microtubules with 750 nM unlabeled Tau (TIRF) came out at 11 μm/min. For the same substance, the relative normalized fluorescence intensity of Tau on dynamic microtubules in assay [3] turned out to be 0.68.
Regarding “WT-Tau, 3RS isoform (construct for TIRF microscopy), Alexa 647-labeled (from UniProt P10636-2 1-352) (natural protein)”, in assay [1], the dwell time of diffusive events came to 0.6 s, the dwell time of static events was 0.7 s and the percent static binding is 43%. In assay [2], the microtubule growth rate at the minus end, dynamic microtubules with 750 nM unlabeled Tau (TIRF) amounted to 0.4 μm/min; the microtubule growth rate at the plus end, dynamic microtubules with 750 nM unlabeled Tau (TIRF) was determined as 1 μm/min; the microtubule shrinkage rate at the minus end, dynamic microtubules with 750 nM unlabeled Tau (TIRF) stood at 7.12 μm/min; the microtubule shrinkage rate at the plus end, dynamic microtubules with 750 nM unlabeled Tau (TIRF) was found to be 7.55 μm/min. The relative normalized fluorescence intensity of Tau on dynamic microtubules in assay [3] worked out at 1.
Take “tubulin (free, soluble), purified from bovine brain (from UniProt Q6B856 1-445) (complex)”: the increase of the normalized diffusion time of Tau at saturation in assay [4] and in assay [5] was 50% in each case.
